Experimental data published in patent US9518103B2, “Optogenetic probes for measuring membrane potential” (President and Fellows of Harvard College, priority 2014, dated 2016).
Changes are numbered by the printed parent chain. Numbers in names are those of the source. Entries after “also recorded” stand apart in the source; their conditions may differ.

B1: QuasAr1: Archaerhodopsin 3 variant with mutations P60S, T80S, D95H, D106H, F161V; genetically encoded voltage indicator (protein)
chain: MDPIALQAGYDLLGDGRPETLWLGIGTLLMLIGTFYFLVRGWGVTDKDAREYYAVTILVSGIASAAYLSMFFGIGLTEVSVGGEMLDIYYARYAHWLFTTPLLLLHLALLAKVDRVTIGTLVGVDALMIVTGLIGALSHTAIARYSWWLFSTICMIVVLYVLATSLRSAAKERGPEVASTFNTLTALVLVLWTAYPILWIIGTEGAGVVGLGIETLLFMVLDVTAKVGFGFILLRSRAILGDTEAPEPSAGADVSAAD
B2: QuasAr2: Archaerhodopsin 3 variant with mutations P60S, T80S, D95Q, D106H, F161V; genetically encoded voltage indicator (protein)
chain: B1 chain with H95Q

Key:
[1] = tested on: cultured rat hippocampal neurons; test: Photocurrent in cultured rat hippocampal neurons; format: cell-based; conditions: for photocurrent (in words): red (640 nm, 300 W/cm^2, tested up to 900 W/cm^2) or blue (488 nm, 500 mW/cm^2) illumination; for photocurrent: red illumination (640 nm, 300 W/cm^2)
Experimental: FIGS. 4A-4B show the photophysics of QuasArs in mammalian cells. […] Steady state photocurrents were calculated by averaging the current over the last 0.25 seconds of light exposure and subtracting the holding current (cells held at −65 mV) in the dark. These currents hyperpolarized cells by 25±4 mV and 19±3 mV, respectively. […] The double mutants had mutations at the locations of the proton acceptor (Asp95) and proton donor (Asp106) to the Schiff base. QuasAr1 includes mutations D95H, D106H, and QuasAr2 includes mutations D95Q, D106H. The three additional backbone mutations in the QuasArs (P60S, T80S, F161V) increased brightness relative to the double mutants, Fluorescence of each Arch mutant was measured with excitation at 640 nm and emission from 660-760 nm. To control for variation in expression level, fluorescence was normalized by eGFP fluorescence (λexc=488 nm, λem=510−550 nm). Error bars represent s.e.m. for measurements on n=5-10 cells.
Measurements were performed on primary cultures at 13-15 DIV. Experiments were conducted in Tyrode's solution containing 125 mM NaCl, 2.5 mM KCl, 3 mM CaCl2, 1 mM MgCl2, 10 mM HEPES, 30 mM glucose (pH 7.3) and adjusted to 305-310 mOsm with sucrose. Prior to imaging, neurons were incubated with 5 μM all-trans retinal for 30 minutes and then washed with Tyrode's solution.
Synaptic blockers were added to the imaging medium for measurements of single-cell electrophysiology (Arch photocurrents, and single-cell excitability). The blockers comprised NBQX (10 μM, Tocris), D(−)-2-amino-5-phosphonovaleric acid (APS; […]), and gabazine (SR-95531, 20 μM, Tocris). For measurements of channel rhodopsin photocurrents in neurons, TTX (1 μM, Tocris) was included along with the synaptic blockers to prevent recruitment of voltage gated sodium channels. […] Recordings were terminated if membrane resistance changed by >10%. Experiments were performed at 23° C. under ambient atmosphere unless otherwise noted.

[2] = tested on: cultured rat hippocampal neurons; test: Single-trial detection of neuronal action potentials with eFRET GEVIs; format: cell-based; conditions: 3 W/cm^2 illumination, exposure times compatible with single action potentials
Excerpt: We further characterized the most sensitive eFRET voltage sensors via transient transfection in cultured rat hippocampal neurons. […] Injection of current pulses via a patch pipette (500-600 pA, 5-10 ms, 5 Hz) induced trains of action potentials, which induced downward fluorescence transients of 12% (YFP), 12% (mOrange2), 7% (mRuby2).
The signal-to-noise ratio (SNR) of fluorescence detection, defined as the ratio of the peak amplitude to standard deviation of fluorescence at the baseline, was 6.6 (YFP), 11.6 (mOrange2), and 10.5 (mRuby2). In all cases images were acquired at 1 kHz with 3 W/cm^2 illumination intensity. Previous measurements with QuasAr2 reported an SNR of 30-70 at the same bandwidth but with 800 W/cm^2 illumination.

Row | Molecule | photocurrent (in words) [1] | photocurrent [1] | direct fluorescence [2]
1 | B1 | Neither QuasAr1 nor QuasAr2 generated detectable photocurrent; also recorded: Neither QuasAr1 (n=9 cells) nor QuasAr2 (n=7 cells) generated detectable photocurrents | 0 pA | –
2 | B2 | Neither QuasAr1 nor QuasAr2 generated detectable photocurrent; also recorded: Neither QuasAr1 (n=9 cells) nor QuasAr2 (n=7 cells) generated detectable photocurrents | 0 pA | not detectable
